Data as given in IntAct's records for PubMed 27107116.

B1: Carbon catabolite-derepressing protein kinase (Saccharomyces cerevisiae), P06782 (parent)
chain: MSSNNNTNTAPANANSSHHHHHHHHHHHHHGHGGSNSTLNNPKSSLADGAHIGNYQIVKTLGEGSFGKVKLAYHTTTGQKVALKIINKKVLAKSDMQGRIEREISYLRLLRHPHIIKLYDVIKSKDEIIMVIEYAGNELFDYIVQRDKMSEQEARRFFQQIISAVEYCHRHKIVHRDLKPENLLLDEHLNVKIADFGLSNIMTDGNFLKTSCGSPNYAAPEVISGKLYAGPEVDVWSCGVILYVMLCRRLPFDDESIPVLFKNISNGVYTLPKFLSPGAAGLIKRMLIVNPLNRISIHEIMQDDWFKVDLPEYLLPPDLKPHPEEENENNDSKKDGSSPDNDEIDDNLVNILSSTMGYEKDEIYESLESSEDTPAFNEIRDAYMLIKENKSLIKDMKANKSVSDELDTFLSQSPPTFQQQSKSHQKSQVDHETAKQHARRMASAITQQRTYHQSPFMDQYKEEDSTVSILPTSLPQIHRANMLAQGSPAASKISPLVTKKSKTRWHFGIRSRSYPLDVMGEIYIALKNLGAEWAKPSEEDLWTIKLRWKYDIGNKTNTNEKIPDLMKMVIQLFQIETNNYLVDFKFDGWESSYGDDTTVSNISEDEMSTFSAYPFLHLTTKLIMELAVNSQSN
partner: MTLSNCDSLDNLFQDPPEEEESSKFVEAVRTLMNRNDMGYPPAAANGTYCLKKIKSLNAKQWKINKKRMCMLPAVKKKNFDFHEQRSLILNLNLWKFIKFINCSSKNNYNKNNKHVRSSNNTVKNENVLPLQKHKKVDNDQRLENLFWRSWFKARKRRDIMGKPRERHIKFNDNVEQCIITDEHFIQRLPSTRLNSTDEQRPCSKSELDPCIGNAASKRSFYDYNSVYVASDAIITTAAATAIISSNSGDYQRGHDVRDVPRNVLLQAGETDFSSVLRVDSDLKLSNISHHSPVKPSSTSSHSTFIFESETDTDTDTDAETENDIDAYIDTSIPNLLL
B2: Protein REG2 (Saccharomyces cerevisiae), P38232 (parent)
chain: B1 partner
partner: B1 chain
B3: Protein REG2 (Saccharomyces cerevisiae), P38232 (parent)
chain: B1 partner

Variants of: B1
Details: with reg2_yeast REG2, P38232

| effect of a mutation on the interaction | Variant |
| --- | --- |
| decreasing interaction strength | K84R |
| disrupting interaction strength | T210A |

Variants of: B2
Details: with snf1_yeast SNF1, P06782

| effect of a mutation on the interaction | Variant |
| --- | --- |
| with no effect | MTLSNCDSLDNLFQDPPEEEESSKFVEAVRTLMNRNDMGYPPAAANGTYCLKKIKSLNAKQWKINKKRMCMLPAVKKKNFDFHEQRSLILNLNLWKFIKFINCSSKNNYNKNNKHVRSSNNTVKNENVLPLQKHKKVDNDQRLENLFWRSWFKARKRRDIMGKPRERHMKANDNVEQCIITDEHFIQRLPSTRLNSTDEQRPCSKSELDPCIGNAASKRSFYDYNSVYVASDAIITTAAATAIISSNSGDYQRGHDVRDVPRNVLLQAGETDFSSVLRVDSDLKLSNISHHSPVKPSSTSSHSTFIFESETDTDTDTDAETENDIDAYIDTSIPNLLL [I169M;F171A] |

Variants of: B3
Details: with pp12_yeast GLC7, P32598
Chain of pp12_yeast GLC7, P32598 (P32598 whole entry): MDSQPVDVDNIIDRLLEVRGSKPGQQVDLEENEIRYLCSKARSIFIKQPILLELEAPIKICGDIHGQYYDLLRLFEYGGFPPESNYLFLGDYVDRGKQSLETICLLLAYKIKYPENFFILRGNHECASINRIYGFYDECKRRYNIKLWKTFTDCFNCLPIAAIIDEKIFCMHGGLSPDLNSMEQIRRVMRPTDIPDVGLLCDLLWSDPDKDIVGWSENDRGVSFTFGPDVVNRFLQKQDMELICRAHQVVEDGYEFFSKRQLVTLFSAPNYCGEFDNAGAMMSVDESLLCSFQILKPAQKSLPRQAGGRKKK

| effect of a mutation on the interaction | Variant |
| --- | --- |
| disrupting interaction strength | MTLSNCDSLDNLFQDPPEEEESSKFVEAVRTLMNRNDMGYPPAAANGTYCLKKIKSLNAKQWKINKKRMCMLPAVKKKNFDFHEQRSLILNLNLWKFIKFINCSSKNNYNKNNKHVRSSNNTVKNENVLPLQKHKKVDNDQRLENLFWRSWFKARKRRDIMGKPRERHMKANDNVEQCIITDEHFIQRLPSTRLNSTDEQRPCSKSELDPCIGNAASKRSFYDYNSVYVASDAIITTAAATAIISSNSGDYQRGHDVRDVPRNVLLQAGETDFSSVLRVDSDLKLSNISHHSPVKPSSTSSHSTFIFESETDTDTDTDAETENDIDAYIDTSIPNLLL [I169M;F171A] |
